Laboratory results published in patent US20050013867A1, “Use of proton sequestering agents in drug formulations” (priority 2001, published 2005).
Like-named read-outs stand apart in the source and are kept apart here.

What was measured:
[1] = Degradation rate of parathyroid hormone in solution ± disodium citrate, by high pressure liquid chromatography; type: physicochemical; details: 1 mg/mL parathyroid hormone ± disodium citrate, pH 3, 40° C.
Description: Determine the degradation rates of parathyroid hormone (1 mg/mL; 0.24 mM)±disodium citrate at pH 3 at 40° C. In separate aliquots, incubate with the following amounts of disodium citrate ([…]; 57.3 μg/mL, 0.24 mM; and 5.73 μg/mL, 0.024 mM). Include a control aliquot containing parathyroid hormone lacking disodium citrate. High pressure liquid chromatography is used to measure the degradation of parathyroid hormone at various time points.

[2] = aqueous solution, general indicator of proton affinity, cited from earlier work

Substance: parathyroid hormone
- retention of activity (degradation by HPLC) [1]: retains more activity in the citrate solution
- pKa of C-terminal carboxylate [2]: ≈ 3.5
- pKa of carboxylate sidechains of aspartic and glutamic acid [2]: ≈ 4.8
- pKa of C-terminal carboxylate ([2]; listed as PTH): 3.5
- pKa of carboxylate sidechains of aspartic and glutamic acid ([2]; listed as PTH): 4.8
